Results on ten molecules are retold here after US20160002344A1 (ONCOMED PHARMACEUTICALS, published 2016).

First the molecules themselves.
B1: recombinant human RSPO2-Fc fusion protein (Fc fusion)
chain: QGNRWRRSKRASYVSNPICKGCLSCSKDNGCSRCQQKLFFFLRREGMRQYGECLHSCPSGYYGHRAPDMNRCARCRIENCDSCFSKDFCTKCKVGFYLHRGRCFDECPDGFAPLEETMECVEGCEVGHWSEWGTCSRNNRTCGFKWGLETRTRQIVKKPVKDTIPCPTIAESRRCKMTMRHCPGGKRTPKAKEKRNKKKKRKLIERAQEQHSVFLATDRANQ
notes: not shown: human Fc region
B2: recombinant human RSPO1-Fc fusion protein (Fc fusion)
chain: SRGIKGKRQRRISAEGSQACAKGCELCSEVNGCLKCSPKLFILLERNDIRQVGVCLPSCPPGYFDARNPDMNKCIKCKIEHCEACFSHNFCTKCKEGLYLHKGRCYPACPEGSSAANGTMECSSPAQCEMSEWSPWGPCSKKQQLCGFRRGSEERTRRVLHAPVGDHAACSDTKETRRCTVRRVPCPEGQKRRKGGQGRRENANRNLARKESKEAGAGSRRRKGQQQQQQQGTVGPLTSAGPA
notes: not shown: human Fc region

The target in assay [1] is T1, soluble LGR5-Fc fusion protein (human, UniProt O75473 22-564).
T1 construct: range 22-564; Expressed in insect cells with baculovirus, purified on protein A; not shown: human Fc
T1 sequence (looked up): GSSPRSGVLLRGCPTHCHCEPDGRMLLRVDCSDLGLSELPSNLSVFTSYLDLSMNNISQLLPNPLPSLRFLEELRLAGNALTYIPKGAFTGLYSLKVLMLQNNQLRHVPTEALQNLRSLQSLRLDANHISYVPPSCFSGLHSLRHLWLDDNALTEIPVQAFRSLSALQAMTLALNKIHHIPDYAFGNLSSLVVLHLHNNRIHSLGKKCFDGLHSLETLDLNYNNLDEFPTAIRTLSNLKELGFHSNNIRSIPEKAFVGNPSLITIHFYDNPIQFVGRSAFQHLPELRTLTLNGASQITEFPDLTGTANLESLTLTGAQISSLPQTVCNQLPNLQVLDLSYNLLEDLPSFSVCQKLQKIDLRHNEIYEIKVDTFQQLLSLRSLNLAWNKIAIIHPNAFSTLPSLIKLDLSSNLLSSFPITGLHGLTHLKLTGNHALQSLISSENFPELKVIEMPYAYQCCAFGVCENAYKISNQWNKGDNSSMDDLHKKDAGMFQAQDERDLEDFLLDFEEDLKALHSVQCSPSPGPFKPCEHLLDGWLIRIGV
Briefly: SPR (Biacore 2000), RSPO-Fc immobilized on CM5 chip, soluble LGR5-Fc injected 100 nM to 0.78 nM. As to the method:
Binding affinities between RSPO proteins and LGR5 were analyzed by surface plasmon resonance. A soluble LGR5-Fc construct was generated using standard recombinant DNA techniques. Specifically, amino acids 1-564 of human LGR5 were ligated in frame to human Fc and the recombinant LGR5-Fc fusion protein was expressed in insect cells using baculovirus. The LGR5-Fc fusion protein was purified from the insect medium using protein A chromatography. Cleavage of the LGR5 signal sequence results in a mature LGR5-Fc fusion protein containing amino acids 22-564 of LGR5. Recombinant RSPO1-Fc, RSPO2-Fc, RSPO3-Fc and RSPO4-Fc fusion proteins were immobilized on CM5 chips using standard amine-based chemistry (NHS/EDC). Two-fold dilutions of soluble LGR5-Fc were injected over the chip surface (100 nM to 0.78 nM). Kinetic data were collected over time using a Biacore 2000 system from Biacore Life Sciences (GE Healthcare) and the data were fit using the simultaneous global fit equation to yield affinity constants (KD values) for each RSPO protein (Table 3).

Assay [2] has as its target B1. The assay is described as follows: SPR (Biacore 2000), human RSPO2-Fc immobilized on CM5 chip, antibody injected 100 nM to 0.78 nM. On the procedure:
The KD of h130M23-H1L2 and h130M23-H1L6 were determined using a Biacore 2000 system from Biacore LifeSciences (GE Healthcare). Recombinant human RSPO2-Fc protein was immobilized on CM5 chips using standard amine-based chemistry (NHS/EDC). The antibodies were serially diluted 2-fold from 100 nM to 0.78 nM in HBS-P (0.01M HEPES pH7.4, 0.15M NaCl, 0.005% v/v Surfactant P20) and were injected over the chip surface. Kinetic data were collected over time and were fit using the simultaneous global fit equation to yield affinity constants (KD values) for each antibody.

The target of assay [3] is Figure 9A construct 1: Positive charge, furin1 (human) (UniProt Q2MKA7). Briefly: FACS, HEK-293 cells transfected with the FLAG-RSPO1 portion-CD4TM construct in Figure 9A; anti-RSPO1 antibody 89M5, PE-conjugated secondary antibody.
In assay [4] the target is Figure 9A construct 4: Positive charge, furin1, furin2, cysteine, Thrombospondin, Positive charge (human) (UniProt Q2MKA7). Described as above.
For assay [5], the target named is Figure 9A construct 2: Positive charge, furin1, furin2 (human) (UniProt Q2MKA7). The assay is described as above.
Assay [6] has as its target Figure 9A construct 3: Positive charge, furin1, furin2, cysteine, Thrombospondin (human) (UniProt Q2MKA7). Described as above.
Assay [7] addresses Figure 9A construct 5: furin1, furin2, cysteine (human) (UniProt Q2MKA7). The description is as above.
Assay [8] addresses T2, recombinant mouse RSPO1-Fc protein (mouse, UniProt Q9Z132 21-265, limits assumed).
T2 construct: Construct not described; not shown: Fc; not described
Briefly: SPR (Biacore 2000), RSPO1-Fc immobilized on CM5 chip, antibody injected 100 nM to 0.78 nM. As to the method:
(§1) The KDs of antibodies 89M4, 89M5, 89M7 and 89M25 were determined using a Biacore 2000 system from Biacore LifeSciences (GE Healthcare). Recombinant human RSPO1-Fc or mouse RSPO1-Fc proteins were immobilized on CM5 chips using standard amine-based chemistry (NHS/EDC). The antibodies were serially diluted 2-fold from 100 nM to 0.78 nM in HBS-P (0.01M HEPES pH7.4, 0.15M NaCl, 0.005% v/v Surfactant P20) and were injected over the chip surface. Kinetic data were collected over time and were fit using the simultaneous global fit equation to yield affinity constants (KD values) for each antibody.

The target of assay [9] is B2. The description is as above. On the procedure: as §1
The target in assay [10] is T3, recombinant mouse RSPO2-Fc protein (mouse, UniProt Q8BFU0 24-243, limits assumed).
T3 construct: Construct not described; not shown: Fc; not described
The assay is described as follows: SPR (Biacore 2000), RSPO2-Fc immobilized on CM5 chip, antibody injected 100 nM to 0.78 nM. As to the method: (§2) The KD of 130M23 was determined using a Biacore 2000 system from Biacore LifeSciences (GE Healthcare). Recombinant human RSPO2-Fc or mouse RSPO2-Fc proteins were immobilized on CM5 chips using standard amine-based chemistry (NHS/EDC). The antibodies were serially diluted 2-fold from 100 nM to 0.78 nM in HBS-P (0.01M HEPES pH7.4, 0.15M NaCl, 0.005% v/v Surfactant P20) and were injected over the chip surface. Kinetic data were collected over time and were fit using the simultaneous global fit equation to yield affinity constants (KD values) for each antibody.

Assay [11] concerns the target B1. The assay is described as above. On the procedure:
as §2

T3 sequence (Q8BFU0 24-243 limits assumed): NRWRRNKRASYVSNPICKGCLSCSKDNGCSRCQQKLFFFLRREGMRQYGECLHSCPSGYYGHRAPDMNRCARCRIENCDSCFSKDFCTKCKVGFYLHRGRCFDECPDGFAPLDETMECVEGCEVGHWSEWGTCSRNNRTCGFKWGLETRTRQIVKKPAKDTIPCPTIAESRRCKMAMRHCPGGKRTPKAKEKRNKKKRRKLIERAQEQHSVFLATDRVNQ
Sequence of Figure 9A construct 2: Positive charge, furin1, furin2 (human) (Q2MKA7 other isoform, or with tags, fused parts or gaps): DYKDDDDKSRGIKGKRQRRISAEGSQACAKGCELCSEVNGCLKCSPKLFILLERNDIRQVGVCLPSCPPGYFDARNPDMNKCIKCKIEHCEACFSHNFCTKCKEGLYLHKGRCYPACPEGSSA
Sequence of Figure 9A construct 5: furin1, furin2, cysteine (human) (Q2MKA7 other isoform, or with tags, fused parts or gaps): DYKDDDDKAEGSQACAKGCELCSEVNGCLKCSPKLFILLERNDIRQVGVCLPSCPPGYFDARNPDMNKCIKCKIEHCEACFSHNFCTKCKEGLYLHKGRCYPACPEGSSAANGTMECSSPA
Sequence of Figure 9A construct 3: Positive charge, furin1, furin2, cysteine, Thrombospondin (human) (Q2MKA7 other isoform, or with tags, fused parts or gaps): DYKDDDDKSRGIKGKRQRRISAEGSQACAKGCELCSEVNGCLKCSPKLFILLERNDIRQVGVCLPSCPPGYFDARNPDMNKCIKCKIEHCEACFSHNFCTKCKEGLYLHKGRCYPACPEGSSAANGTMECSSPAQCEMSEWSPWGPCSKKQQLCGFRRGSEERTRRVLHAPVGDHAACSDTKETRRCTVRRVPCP
Sequence of Figure 9A construct 1: Positive charge, furin1 (human) (Q2MKA7 other isoform, or with tags, fused parts or gaps): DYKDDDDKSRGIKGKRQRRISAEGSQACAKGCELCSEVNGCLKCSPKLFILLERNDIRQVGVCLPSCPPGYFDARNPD

On to B1, for which the Kd in assay [1] turned out to be 14 nM.

In [1], B2 displayed a Kd of 110 nM.

B3: humanized anti-RSPO2 antibody h130M23-H1L2 (antibody, human IgG2, kappa, V domains shown)
VH: EVQLVESGGGLVKPGGSLRLSCAASGFTFSSYAMSWVRQAPGKGLEWVSSISSGGSTYYPDSVKGRFTISRDNAKNSLYLQMNSLRAEDTAVYYCARGGDPGVYNGDYEDAMDYWGQGTTVTVSS
VL: DIQMTQSPSSLSASVGDRVTITCKASQDVSSAVAWYQQKPGKAPKLLIYWASTRHTGVPSRFSGSGSGTDFTLTISSVQAEDFATYYCQQHYSTPWTFGQGTKVEIKR
notes: also called 130M23-H1 with 130M23-L2
In the case of B3, in [2], the Kd amounted to 0.13 nM.

B4: humanized anti-RSPO2 antibody h130M23-H1L6 (antibody, human IgG2, kappa, V domains shown)
VH: EVQLVESGGGLVKPGGSLRLSCAASGFTFSSYAMSWVRQAPGKGLEWVSSISSGGSTYYPDSVKGRFTISRDNAKNSLYLQMNSLRAEDTAVYYCARGGDPGVYNGDYEDAMDYWGQGTTVTVSS
VL: DIQMTQSPSSLSASVGDRVTITCKASQDVSSAVAWYQQKPGKAPKLLIYWASTRHTGVPSRFSGSGSGTDFTLTISSLQPEDFATYYCQQHYSTPWTFGQGTKVEIKR
As for B4, the Kd in assay [2] stood at 0.15 nM.

B5: recombinant human RSPO4-Fc fusion protein (Fc fusion)
chain: LNRRKKQVGTGLGGNCTGCIICSEENGCSTCQQRLFLFIRREGIRQYGKCLHDCPPGYFGIRGQEVNRCKKCGATCESCFSQDFCIRCKRQFYLYKGKCLPTCPPGTLAHQNTRECQGECELGPWGGWSPCTHNGKTCGSAWGLESRVREAGRAGHEEAATCQVLSESRKCPIQRPCPGERSPGQKKGRKDRRPRKDRKLDRRLDVRPRQPGLQP
notes: not shown: human Fc region
For the molecule B5, the Kd in assay [1] worked out at 73 nM.

B6: recombinant human RSPO3-Fc fusion protein (Fc fusion)
chain: QNASRGRRQRRMHPNVSQGCQGGCATCSDYNGCLSCKPRLFFALERIGMKQIGVCLSSCPSGYYGTRYPDINKCTKCKADCDTCFNKNFCTKCKSGFYLHLGKCLDNCPEGLEANNHTMECVSIVHCEVSEWNPWSPCTKKGKTCGFKRGTETRVREIIQHPSAKGNLCPPTNETRKCTVQRKKCQKGERGKKGRERKRKKPNKGESKEAIPDSKSLESSKEIPEQRENKQQQKKRKVQDKQKSVSVSTVH
notes: not shown: human Fc region
In the case of B6, the Kd in assay [1] is under 1 nM.

B7: anti-RSPO1 monoclonal antibody 89M5 (hybridoma ATCC PTA-11970) (antibody, mouse IgG1, kappa, V domains shown)
VH: EVQLQQSGPELVKPGASVKISCKTSGYTFTGYTMHWVRQSHGKTLEWIGGINPNNGGTTYNQNFKGKATLTVEKSSTTAYLELRSLTSEDSALYYCARKEFSDGYYFFAYWGQGTLVTVSS
VL: DIVMTQSHKFMSTSVGDRVNITCKASQDVIFAVAWYQQKPGQSPKLLIYWASTRHTGVPDRFTGSVSGTDYTLTISSVQAEDLALYYCQQHYSTPWTFGGGTKLEIKR
notes: Murine monoclonal antibody; also called parental 89M5 antibody
Take B7: the MFI is 5.42 in assay [3]; 10.3 in [4]; 15.5 in assay [5]; 20.1 in assay [6]; 406 in [7]. For the same molecule, the Kd in assay [8] and in [9] was under 0.1 nM throughout.

B8: anti-RSPO1 monoclonal antibody 89M25 (antibody, V domains shown)
VH: EVQLQQSGPELVKPGASVKISCKTSGYTFTGYTMHWVRQSHGKTLEWIGGINPNNGGTTYNQNFKGKATLTVEKSSTTAYLELRSLTSEDSALYYCARKEFSDGYYFFAYWGQGTLVTVSA
VL: DIVMTQSHKFMSTSVGDRVNITCKASQDVIFAVAWYQQKPGQSPKLLIYWASTRHTGVPDRFTGSVSGTDYTLTISSVQAEDLALYYCQQHYSTPWTFGGGTKLEIK
For the molecule B8, the Kd in assay [8] and in assay [9] was under 0.1 nM each time.

B9: anti-RSPO1 monoclonal antibody 89M4 (antibody, V domains shown)
VH: EVQLQQSGPELVKPGASVKISCKTSGYTFTGYTMHWVRQSHGKTLEWIGGINPNNGGTTYNQNFKGKATLTVEKSSTTAYLELRSLTSEDSALYYCARKEFSDGYYFFAYWGQGTLVTVSA
VL: DIVMTQSHKFMSTSVGDRVNITCKASQDVIFAVAWYQQKPGQSPKLLIYWASTRHTGVPDRFTGSVSGTDYTLTISSVQAEDLALYYCQQHYSTPWTFGGGTKLEIK
On to B9, for which the Kd in [8] and in [9] was under 0.1 nM each time.

B10: anti-RSPO2 monoclonal antibody 130M23 (hybridoma ATCC PTA-12021) (antibody, mouse IgG1, kappa, V domains shown)
VH: EVKLVESGGGLVKPGGSLKFSCAASGFSFSSYAMSWVRQTPEKRLEWVASISSGGSTYYPDSVKGRFTISRDNVRNILYLQMSSLRSEDTAMYFCARGGDPGVYNGDYEDAMDYWGQGTSVTVSS
VL: DIVMTQSHKFMSTSVGDRVSITCKASQDVSSAVAWYQQKPGQSPKLLIYWASTRHTGVPDRFTNSGSGTDYTLTISSVQAEDLALYYCQQHYSTPWTFGGGTKLEIKR
notes: Murine monoclonal antibody; also called parental 130M23 antibody
Regarding B10, the figures for the Kd in [10] and in assay [11] were 0.35 nM and 0.14 nM, respectively.
